{
  "source": "paper PMC7049810",
  "about": "“Outer membrane lipoprotein NlpI scaffolds peptidoglycan hydrolases within multi‐enzyme complexes in Escherichia coli” (The EMBO Journal, 2020)",
  "key": {"[1]": {"biological_target": "the molecule itself", "test": "AUC; sedimentation velocity, 45,000 rpm, 20°C, 25 mM HEPES/NaOH, 150 mM NaCl, pH 7.5; NlpI 0.3-1.2 mg/ml; c(s) model"}, "[2]": {"biological_target": "the molecule itself", "test": "MST; titration: NT647-labelled protein against a two-fold serial dilution (16 steps) of unlabelled ligand; 25 mM HEPES/NaOH, 150 mM NaCl, 0.05% Triton X-100, pH 7.5; Monolith NT.115; apparent constants; for NlpI with itself: dimer to monomers"}, "[3]": {"biological_target": "T1, MepM (Escherichia coli, UniProt P0AFS9 41-440)", "T1 construct": "Peptidoglycan endopeptidase MepM of E. coli; source: purified as previously described in Moré et al (2019)", "T1 sequence (looked up)": "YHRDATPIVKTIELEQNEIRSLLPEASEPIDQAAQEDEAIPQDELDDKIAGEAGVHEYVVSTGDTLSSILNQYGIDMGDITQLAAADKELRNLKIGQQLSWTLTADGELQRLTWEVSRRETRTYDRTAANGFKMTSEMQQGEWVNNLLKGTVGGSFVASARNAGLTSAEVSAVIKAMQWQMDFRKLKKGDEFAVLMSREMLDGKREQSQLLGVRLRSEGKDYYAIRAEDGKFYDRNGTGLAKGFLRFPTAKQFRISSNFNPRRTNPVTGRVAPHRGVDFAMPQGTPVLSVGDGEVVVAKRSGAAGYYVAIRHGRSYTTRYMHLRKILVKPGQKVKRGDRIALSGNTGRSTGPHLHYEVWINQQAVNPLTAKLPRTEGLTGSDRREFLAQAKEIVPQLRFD", "test": "MST; titration: NT647-labelled protein against a two-fold serial dilution (16 steps) of unlabelled ligand; 25 mM HEPES/NaOH, 150 mM NaCl, 0.05% Triton X-100, pH 7.5; Monolith NT.115; apparent constants; for NlpI with itself: dimer to monomers", "conditions": "both partners purified"}, "[4]": {"biological_target": "T2, PBP4, native, purified (Escherichia coli, UniProt P24228 21-477, where used as the labelled protein in MST: NT647 RED-NHS dye on amines)", "T2 construct": "PBP4 (DD-endopeptidase) of E. coli, 'native PBP4' purified after Kishida et al (2006); Untagged ('native'); source: E. coli BL21 (λDE3), purified (HiTrap Q, hydroxyapatite, Superdex 200)", "T2 sequence (P24228 21-477)": "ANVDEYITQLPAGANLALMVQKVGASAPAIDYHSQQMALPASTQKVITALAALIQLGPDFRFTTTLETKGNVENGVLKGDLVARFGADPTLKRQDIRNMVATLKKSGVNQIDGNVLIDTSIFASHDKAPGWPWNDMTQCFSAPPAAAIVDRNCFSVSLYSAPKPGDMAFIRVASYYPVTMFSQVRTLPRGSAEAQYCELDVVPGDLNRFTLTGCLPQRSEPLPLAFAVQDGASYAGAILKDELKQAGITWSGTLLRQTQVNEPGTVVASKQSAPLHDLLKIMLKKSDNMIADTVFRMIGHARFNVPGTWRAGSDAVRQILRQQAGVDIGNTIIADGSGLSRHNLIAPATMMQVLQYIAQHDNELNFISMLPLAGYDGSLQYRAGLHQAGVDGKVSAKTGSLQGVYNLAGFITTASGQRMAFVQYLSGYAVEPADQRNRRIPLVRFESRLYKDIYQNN", "test": "MST; titration: NT647-labelled protein against a two-fold serial dilution (16 steps) of unlabelled ligand; 25 mM HEPES/NaOH, 150 mM NaCl, 0.05% Triton X-100, pH 7.5; Monolith NT.115; apparent constants; for NlpI with itself: dimer to monomers", "conditions": "both partners purified"}, "[5]": {"biological_target": "T3, PBP7, purified (Escherichia coli, UniProt P0AFI5 26-310, where used as the labelled protein in MST: NT647 RED-NHS dye on amines)", "T3 construct": "PBP7 (DD-endopeptidase) of E. coli; source: E. coli BL21 (λDE3), purified (HisTrap HP, Superdex 200)", "T3 sequence (looked up)": "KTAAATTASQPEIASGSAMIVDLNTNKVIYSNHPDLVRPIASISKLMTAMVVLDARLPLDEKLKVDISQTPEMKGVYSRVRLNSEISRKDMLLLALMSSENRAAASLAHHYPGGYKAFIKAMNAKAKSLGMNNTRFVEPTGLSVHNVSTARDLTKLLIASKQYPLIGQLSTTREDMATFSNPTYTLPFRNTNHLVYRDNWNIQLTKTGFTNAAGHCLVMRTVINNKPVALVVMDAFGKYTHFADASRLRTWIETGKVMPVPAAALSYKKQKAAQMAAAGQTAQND", "test": "pull-down; Ni2+-NTA agarose beads; His-tagged protein with untagged or native ligand, overnight at 4°C; 10 mM HEPES/NaOH, 10 mM MgCl2, 150 mM NaCl, 0.05% Triton X-100, pH 7.5; washes with 30 mM imidazole; SDS-PAGE", "conditions": "both partners purified"}},
  "data": [
    {"binder": "NlpI, soluble version lacking its membrane anchor (natural protein, Escherichia coli, where used as fl-NlpI in MST: NT647 RED-NHS dye on amines, Outer membrane lipoprotein NlpI of E. coli, soluble version lacking its membrane anchor; Homodimer by AUC; also called fl-NlpI (fluorescently labelled); His-NlpI; source: E. coli BL21 (λDE3), purified (HisTrap HP, Superdex 200)) SNTSWRKSEVLAVPLQPTLQQEVILARMEQILASRALTDDERAQLLYERGVLYDSLGLRALARNDFSQALAIRPDMPEVFNYLGIYLTQAGNFDAAYEAFDSVLELDPTYNYAHLNRGIALYYGGRDKLAQDDLLAFYQDDPNDPFRSLWLYLAEQKLDEKQAKEVLKQHFEKSDKEQWGWNIVEFYLGNISEQTLMERLKADATDNTSLAEHLSETNFYLGKYYLSLGDLDSATALFKLAVANNVHNFVEHRYALLELSLLGQDQDDLAESDQQ", "values": [
      {"measurement": "stoichiometry N", "setting": "[1]", "value": 2},
      {"measurement": "Kd", "setting": "[2]", "value": 126, "unit": "nM"},
      {"measurement": "Kd", "setting": "[3]", "value": 152, "unit": "nM"},
      {"measurement": "Kd", "setting": "[4]", "value": 177, "unit": "nM"},
      {"measurement": "binding result", "setting": "[5]", "value": "binds"}
    ]}
  ]
}
